In IntAct's records for PubMed 29039417:

B1: BBSome complex member BBS4 (Homo sapiens), Q96RK4 (parent)
chain: MAEERVATRTQFPVSTESQKPRQKKAPEFPILEKQNWLIHLHYIRKDYEACKAVIKEQLQETQGLCEYAIYVQALIFRLEGNIQESLELFQTCAVLSPQSADNLKQVARSLFLLGKHKAAIEVYNEAAKLNQKDWEISHNLGVCYIYLKQFNKAQDQLHNALNLNRHDLTYIMLGKIHLLEGDLDKAIEVYKKAVEFSPENTELLTTLGLLYLQLGIYQKAFEHLGNALTYDPTNYKAILAAGSMMQTHGDFDVALTKYRVVACAVPESPPLWNNIGMCFFGKKKYVAAISCLKRANYLAPFDWKILYNLGLVHLTMQQYASAFHFLSAAINFQPKMGELYMLLAVALTNLEDIENAKRAYAEAVHLDKCNPLVNLNYAVLLYNQGEKKNALAQYQEMEKKVSLLKDNSSLEFDSEMVEMAQKLGAALQVGEALVWTKPVKDPKSKHQTTSTSKPASFQQPLGSNQALGQAMSSAAAYRTLPSGAGGTSQFTKPPSLPLEPEPAVESSPTETSEQIREK
partner: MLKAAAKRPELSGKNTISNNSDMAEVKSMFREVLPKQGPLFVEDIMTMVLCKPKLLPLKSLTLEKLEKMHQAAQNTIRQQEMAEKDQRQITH

Variants of: B1
Details: with bbip1_human BBIP1, A8MTZ0

Effect of a mutation on the interaction, with no effect:
MAEERVATRTQFPVSTESQKPRQKKAPEFPILEKQNWLIHLHYIRKDYEACKAVIKEQLQETQGLCEYAIYVQALIFRLEGNIQESLELFQTCAVLSPQSADNLKQVARSLFLLGKHKAAIEVYNEAAKLNQKDWEISHNLGVCYIYLKQFNKAQDQLHNALNLNRHDLTYIMLGKIHLLEGDLDKAIEVYKKAVEFSPENTELLTTLGLLYLQLGIYQKAFEHLGNALTYDPTNYKAILAAGSMMQTHGDFDVALTKYRVVACAVPESPPLWNNIGMCFFGKKKYVAAISCLKRANYLAPFDWKILYNLGLVHLTMQQYASAFHFLSAAINFQPKMGELYMLLAVALTNLEDIENAKRAYAEAVHLDKCNPLVNLNYAVLLYNQGEKKNALAQYQEMEKKVSLLKDNSSLEFDSEMVEMAQKLGAALQVGEALVWTKAVKDPKSKHQTTSTSKPASFQQPLGSNQALGQAMSSAAAYRTLPSGAGGTSQFTKPPSLPLEPEPAVESSPTETSEQIREK [P439A]
MAEERVATRTQFPVSTESQKPRQKKAPEFPILEKQNWLIHLHYIRKDYEACKAVIKEQLQETQGLCEYAIYVQALIFRLEGNIQESLELFQTCAVLSPQSADNLKQVARSLFLLGKHKAAIEVYNEAAKLNQKDWEISHNLGVCYIYLKQFNKAQDQLHNALNLNRHDLTYIMLGKIHLLEGDLDKAIEVYKKAVEFSPENTELLTTLGLLYLQLGIYQKAFEHLGNALTYDPTNYKAILAAGSMMQTHGDFDVALTKYRVVACAVPESPPLWNNIGMCFFGKKKYVAAISCLKRANYLAPFDWKILYNLGLVHLTMQQYASAFHFLSAAINFQPKMGELYMLLAVALTNLEDIENAKRAYAEAVHLDKCNPLVNLNYAVLLYNQGEKKNALAQYQEMEKKVSLLKDNSSLEFDSEMVEMAQKLGAALQVGEALVWTKEVKDPKSKHQTTSTSKPASFQQPLGSNQALGQAMSSAAAYRTLPSGAGGTSQFTKPPSLPLEPEPAVESSPTETSEQIREK [P439E]
MAEERVATRTQFPVSTESQKPRQKKAPEFPILEKQNWLIHLHYIRKDYEACKAVIKEQLQETQGLCEYAIYVQALIFRLEGNIQESLELFQTCAVLSPQSADNLKQVARSLFLLGKHKAAIEVYNEAAKLNQKDWEISHNLGVCYIYLKQFNKAQDQLHNALNLNRHDLTYIMLGKIHLLEGDLDKAIEVYKKAVEFSPENTELLTTLGLLYLQLGIYQKAFEHLGNALTYDPTNYKAILAAGSMMQTHGDFDVALTKYRVVACAVPESPPLWNNIGMCFFGKKKYVAAISCLKRANYLAPFDWKILYNLGLVHLTMQQYASAFHFLSAAINFQPKMGELYMLLAVALTNLEDIENAKRAYAEAVHLDKCNPLVNLNYAVLLYNQGEKKNALAQYQEMEKKVSLLKDNSSLEFDSEMVEMAQKLGAALQVGEALVWTKKVKDPKSKHQTTSTSKPASFQQPLGSNQALGQAMSSAAAYRTLPSGAGGTSQFTKPPSLPLEPEPAVESSPTETSEQIREK [P439K]
MAEERVATRTQFPVSTESQKPRQKKAPEFPILEKQNWLIHLHYIRKDYEACKAVIKEQLQETQGLCEYAIYVQALIFRLEGNIQESLELFQTCAVLSPQSADNLKQVARSLFLLGKHKAAIEVYNEAAKLNQKDWEISHNLGVCYIYLKQFNKAQDQLHNALNLNRHDLTYIMLGKIHLLEGDLDKAIEVYKKAVEFSPENTELLTTLGLLYLQLGIYQKAFEHLGNALTYDPTNYKAILAAGSMMQTHGDFDVALTKYRVVACAVPESPPLWNNIGMCFFGKKKYVAAISCLKRANYLAPFDWKILYNLGLVHLTMQQYASAFHFLSAAINFQPKMGELYMLLAVALTNLEDIENAKRAYAEAVHLDKCNPLVNLNYAVLLYNQGEKKNALAQYQEMEKKVSLLKDNSSLEFDSEMVEMAQKLGAALQVGEALVWTAPVKDPKSKHQTTSTSKPASFQQPLGSNQALGQAMSSAAAYRTLPSGAGGTSQFTKPPSLPLEPEPAVESSPTETSEQIREK [K438A]
MAEERVATRTQFPVSTESQKPRQKKAPEFPILEKQNWLIHLHYIRKDYEACKAVIKEQLQETQGLCEYAIYVQALIFRLEGNIQESLELFQTCAVLSPQSADNLKQVARSLFLLGKHKAAIEVYNEAAKLNQKDWEISHNLGVCYIYLKQFNKAQDQLHNALNLNRHDLTYIMLGKIHLLEGDLDKAIEVYKKAVEFSPENTELLTTLGLLYLQLGIYQKAFEHLGNALTYDPTNYKAILAAGSMMQTHGDFDVALTKYRVVACAVPESPPLWNNIGMCFFGKKKYVAAISCLKRANYLAPFDWKILYNLGLVHLTMQQYASAFHFLSAAINFQPKMGELYMLLAVALTNLEDIENAKRAYAEAVHLDKCNPLVNLNYAVLLYNQGEKKNALAQYQEMEKKVSLLKDNSSLEFDSEMVEMAQKLGAALQVGEALVWTEPVKDPKSKHQTTSTSKPASFQQPLGSNQALGQAMSSAAAYRTLPSGAGGTSQFTKPPSLPLEPEPAVESSPTETSEQIREK [K438E]
MAEERVATRTQFPVSTESQKPRQKKAPEFPILEKQNWLIHLHYIRKDYEACKAVIKEQLQETQGLCEYAIYVQALIFRLEGNIQESLELFQTCAVLSPQSADNLKQVARSLFLLGKHKAAIEVYNEAAKLNQKDWEISHNLGVCYIYLKQFNKAQDQLHNALNLNRHDLTYIMLGKIHLLEGDLDKAIEVYKKAVEFSPENTELLTTLGLLYLQLGIYQKAFEHLGNALTYDPTNYKAILAAGSMMQTHGDFDVALTKYRVVACAVPESPPLWNNIGMCFFGKKKYVAAISCLKRANYLAPFDWKILYNLGLVHLTMQQYASAFHFLSAAINFQPKMGELYMLLAVALTNLEDIENAKRAYAEAVHLDKCNPLVNLNYAVLLYNQGEKKNALAQYQEMEKKVSLLKDNSSLEFDSEMVEMAQKLGAALQVGEALVWTKPAKDPKSKHQTTSTSKPASFQQPLGSNQALGQAMSSAAAYRTLPSGAGGTSQFTKPPSLPLEPEPAVESSPTETSEQIREK [V440A]
MAEERVATRTQFPVSTESQKPRQKKAPEFPILEKQNWLIHLHYIRKDYEACKAVIKEQLQETQGLCEYAIYVQALIFRLEGNIQESLELFQTCAVLSPQSADNLKQVARSLFLLGKHKAAIEVYNEAAKLNQKDWEISHNLGVCYIYLKQFNKAQDQLHNALNLNRHDLTYIMLGKIHLLEGDLDKAIEVYKKAVEFSPENTELLTTLGLLYLQLGIYQKAFEHLGNALTYDPTNYKAILAAGSMMQTHGDFDVALTKYRVVACAVPESPPLWNNIGMCFFGKKKYVAAISCLKRANYLAPFDWKILYNLGLVHLTMQQYASAFHFLSAAINFQPKMGELYMLLAVALTNLEDIENAKRAYAEAVHLDKCNPLVNLNYAVLLYNQGEKKNALAQYQEMEKKVSLLKDNSSLEFDSEMVEMAQKLGAALQVGEALVETKPVKDPKSKHQTTSTSKPASFQQPLGSNQALGQAMSSAAAYRTLPSGAGGTSQFTKPPSLPLEPEPAVESSPTETSEQIREK [W436E]
MAEERVATRTQFPVSTESQKPRQKKAPEFPILEKQNWLIHLHYIRKDYEACKAVIKEQLQETQGLCEYAIYVQALIFRLEGNIQESLELFQTCAVLSPQSADNLKQVARSLFLLGKHKAAIEVYNEAAKLNQKDWEISHNLGVCYIYLKQFNKAQDQLHNALNLNRHDLTYIMLGKIHLLEGDLDKAIEVYKKAVEFSPENTELLTTLGLLYLQLGIYQKAFEHLGNALTYDPTNYKAILAAGSMMQTHGDFDVALTKYRVVACAVPESPPLWNNIGMCFFGKKKYVAAISCLKRANYLAPFDWKILYNLGLVHLTMQQYASAFHFLSAAINFQPKMGELYMLLAVALTNLEDIENAKRAYAEAVHLDKCNPLVNLNYAVLLYNQGEKKNALAQYQEMEKKVSLLKDNSSLEFDSEMVEMAQKLGAALQVGEALVATKPVKDPKSKHQTTSTSKPASFQQPLGSNQALGQAMSSAAAYRTLPSGAGGTSQFTKPPSLPLEPEPAVESSPTETSEQIREK [W436A]
MAEERVATRTQFPVSTESQKPRQKKAPEFPILEKQNWLIHLHYIRKDYEACKAVIKEQLQETQGLCEYAIYVQALIFRLEGNIQESLELFQTCAVLSPQSADNLKQVARSLFLLGKHKAAIEVYNEAAKLNQKDWEISHNLGVCYIYLKQFNKAQDQLHNALNLNRHDLTYIMLGKIHLLEGDLDKAIEVYKKAVEFSPENTELLTTLGLLYLQLGIYQKAFEHLGNALTYDPTNYKAILAAGSMMQTHGDFDVALTKYRVVACAVPESPPLWNNIGMCFFGKKKYVAAISCLKRANYLAPFDWKILYNLGLVHLTMQQYASAFHFLSAAINFQPKMGELYMLLAVALTNLEDIENAKRAYAEAVHLDKCNPLVNLNYAVLLYNQGEKKNALAQYQEMEKKVSLLKDNSSLEFDSEMVEMAQKLGAALQVGEALVKTKPVKDPKSKHQTTSTSKPASFQQPLGSNQALGQAMSSAAAYRTLPSGAGGTSQFTKPPSLPLEPEPAVESSPTETSEQIREK [W436K]
MAEERVATRTQFPVSTESQKPRQKKAPEFPILEKQNWLIHLHYIRKDYEACKAVIKEQLQETQGLCEYAIYVQALIFRLEGNIQESLELFQTCAVLSPQSADNLKQVARSLFLLGKHKAAIEVYNEAAKLNQKDWEISHNLGVCYIYLKQFNKAQDQLHNALNLNRHDLTYIMLGKIHLLEGDLDKAIEVYKKAVEFSPENTELLTTLGLLYLQLGIYQKAFEHLGNALTYDPTNYKAILAAGSMMQTHGDFDVALTKYRVVACAVPESPPLWNNIGMCFFGKKKYVAAISCLKRANYLAPFDWKILYNLGLVHLTMQQYASAFHFLSAAINFQPKMGELYMLLAVALTNLEDIENAKRAYAEAVHLDKCNPLVNLNYAVLLYNQGEKKNALAQYQEMEKKVSLLKDNSSLEFDSEMVEMAQKLGAALQVGEALVWEKPVKDPKSKHQTTSTSKPASFQQPLGSNQALGQAMSSAAAYRTLPSGAGGTSQFTKPPSLPLEPEPAVESSPTETSEQIREK [T437E]
MAEERVATRTQFPVSTESQKPRQKKAPEFPILEKQNWLIHLHYIRKDYEACKAVIKEQLQETQGLCEYAIYVQALIFRLEGNIQESLELFQTCAVLSPQSADNLKQVARSLFLLGKHKAAIEVYNEAAKLNQKDWEISHNLGVCYIYLKQFNKAQDQLHNALNLNRHDLTYIMLGKIHLLEGDLDKAIEVYKKAVEFSPENTELLTTLGLLYLQLGIYQKAFEHLGNALTYDPTNYKAILAAGSMMQTHGDFDVALTKYRVVACAVPESPPLWNNIGMCFFGKKKYVAAISCLKRANYLAPFDWKILYNLGLVHLTMQQYASAFHFLSAAINFQPKMGELYMLLAVALTNLEDIENAKRAYAEAVHLDKCNPLVNLNYAVLLYNQGEKKNALAQYQEMEKKVSLLKDNSSLEFDSEMVEMAQKLGAALQVGEALVWKKPVKDPKSKHQTTSTSKPASFQQPLGSNQALGQAMSSAAAYRTLPSGAGGTSQFTKPPSLPLEPEPAVESSPTETSEQIREK [T437K]
MAEERVATRTQFPVSTESQKPRQKKAPEFPILEKQNWLIHLHYIRKDYEACKAVIKEQLQETQGLCEYAIYVQALIFRLEGNIQESLELFQTCAVLSPQSADNLKQVARSLFLLGKHKAAIEVYNEAAKLNQKDWEISHNLGVCYIYLKQFNKAQDQLHNALNLNRHDLTYIMLGKIHLLEGDLDKAIEVYKKAVEFSPENTELLTTLGLLYLQLGIYQKAFEHLGNALTYDPTNYKAILAAGSMMQTHGDFDVALTKYRVVACAVPESPPLWNNIGMCFFGKKKYVAAISCLKRANYLAPFDWKILYNLGLVHLTMQQYASAFHFLSAAINFQPKMGELYMLLAVALTNLEDIENAKRAYAEAVHLDKCNPLVNLNYAVLLYNQGEKKNALAQYQEMEKKVSLLKDNSSLEFDSEMVEMAQKLGAALQVGEALVWAKPVKDPKSKHQTTSTSKPASFQQPLGSNQALGQAMSSAAAYRTLPSGAGGTSQFTKPPSLPLEPEPAVESSPTETSEQIREK [T437A]
